In US20260217825A1 (CHIMAGEN BIOSCIENCES, published 2026):
Changes are numbered by the printed parent chain. Names may count otherwise. Read-outs that look alike come from different tables or passages of the source. Values belong to the binder of their own block, whether it stands above or below them.

Experiments:
[1] = biological target: T1, recombinant GPRC5D antigen (Human GPRC5D protein-Flag-His tag (51.8KD) ACRO Cat: GPD-H52D3) (human, UniProt Q9NZD1 1-345, limits assumed); test: BLI (Octet R8), recombinant GPRC5D antigen
T1 construct: Bought protein; also called CPRG5D; not shown: Flag-His tag
T1 sequence (Q9NZD1 whole entry): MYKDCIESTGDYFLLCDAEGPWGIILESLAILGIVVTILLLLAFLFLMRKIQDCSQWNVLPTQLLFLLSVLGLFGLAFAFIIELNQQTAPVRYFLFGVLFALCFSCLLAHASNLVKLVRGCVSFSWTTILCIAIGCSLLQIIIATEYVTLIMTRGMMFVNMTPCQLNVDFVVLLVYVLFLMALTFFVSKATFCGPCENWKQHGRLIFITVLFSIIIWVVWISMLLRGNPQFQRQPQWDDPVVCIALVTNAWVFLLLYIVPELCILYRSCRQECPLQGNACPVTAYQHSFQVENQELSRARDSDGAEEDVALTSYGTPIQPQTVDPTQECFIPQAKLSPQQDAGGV
From the text: The recombinant GPRC5D antigen (Human GPRC5D protein-Flag-His tag (51.8KD) ACRO Cat: GPD-H52D3) was immobilized on a chip and detected by Octet® R8 biomolecular interaction analysis system.

human GPRC5D on cells [2] = biological target: T2, human GPRC5D on cells (human, UniProt Q9NZD1 1-345); test: FACS on MM.1R cells (natural GPRC5D), anti-human IgG Fc-APC secondary; fit table under the curves
T2 construct: whole, on cells; Either overexpressed in HEK293, CHOS or HEK293T cells, or naturally expressed on human myeloma cell lines; also called hGPRC5D; HEK293-hGPRC5D
T2 sequence (Q9NZD1 whole entry): as above
Method: (§1) After the cells were digested with TrypLE, the digested cells were centrifuged and resuspended in a DPBS solution containing 2% BSA (FACS buffer, 4° C.), added into a 96-well plate with a U-shaped bottom in an amount of 5× 10⁵ cells/100 μl/well, added with antibody diluted over concentration gradient, and incubated at 4° C. for 1 hr. After centrifugation, the supernatant was discarded. 100 μl of anti-human IgG Fc-APC secondary antibody was added to each well and incubated at 4° C. for 1 hr. Then the cells were washed once with a FACS buffer, and resuspended in 200 μl FACS buffer. The fluorescence signal was read on BD CantoII.

human GPRC5D on cells [3] = biological target: T2, human GPRC5D on cells; test: FACS on HEK293 cells expressing hGPRC5D (sheet title: 293T-hGPRC5D sorted), anti-human IgG Fc-APC secondary; fit table under the curves
Method: (§2) After centrifugation, […] and CHOS-hGPRC5D cells expressing hGPRC5D were resuspended in a DPBS solution (FACS buffer, 4° C.) containing 2% BSA, added to a 96-well plate with a U-shaped bottom in an amount of 5×10⁵ cells/100 μl/well, added with antibody diluted over concentration gradient, and incubated at 4° C. for 1 hr. After centrifugation, the supernatant was discarded. 100 μl of anti-human IgG Fc-APC secondary antibody was added to each well and incubated at 4° C. for 1 hr. Then the cells were washed once with a FACS buffer, and resuspended in 200 μl FACS buffer. The fluorescence signal was read on BD CantoII.

human GPRC5D on cells [4] = biological target: T2, human GPRC5D on cells; test: flow cytometry, MM.1R cell binding
Method: as §1

human GPRC5D on cells [5] = biological target: T2, human GPRC5D on cells; test: flow cytometry, RPMI-8226 cell binding
Method: as §1

human GPRC5D on cells [6] = biological target: T2, human GPRC5D on cells; test: FACS on NCI-H929 cells (natural GPRC5D), anti-human IgG Fc-APC secondary; fit table under the curves
Method: as §1

human GPRC5D on cells [7] = biological target: T2, human GPRC5D on cells; test: FACS on CHOS cells expressing hGPRC5D (sheet title: CHOS-hGPRC5D sorted), anti-human IgG Fc-APC secondary; fit table under the curves, unit from the axis Log Conc.(ug/ml)
Method: as §2

human GPRC5D on cells [8] = biological target: T2, human GPRC5D on cells; test: flow cytometry, NCI-H929 cell binding
Method: as §1

human GPRC5D on cells [9] = biological target: T2, human GPRC5D on cells; test: FACS on RPMI-8226 cells (natural GPRC5D), anti-human IgG Fc-APC secondary; fit table under the curves
Method: as §1

human GPRC5D on cells [10] = biological target: T2, human GPRC5D on cells; test: FACS on CHOS cells expressing hGPRC5D (sheet title: CHOS-hGPRC5D sorted), anti-human IgG Fc-APC secondary; fit table under the curves
Method: as §2

human GPRC5D on cells [11] = biological target: T2, human GPRC5D on cells; test: FACS on HEK293 cells expressing hGPRC5D (sheet title: 293T-hGPRC5D sorted), anti-human IgG Fc-APC secondary; fit table under the curves, unit from the axis Log Conc.(ug/ml)
Method: as §2

human GPRC5D on cells [12] = biological target: T2, human GPRC5D on cells; test: cell-based binding assay on HEK293T-hGPRC5D
Method: (§3) HEK293T-hGPRC5D or HEK293T-cynoGPRC5D cells in logarithmic growth phase were inoculated into a 96-well culture plate, and the antibodies at different concentrations (200, 66.7, 22.22, 7.41, 2.47, 0.82, 0.27, 0.09, 0.03, and 0.01 nM) was added. 2 duplicate wells were set for each concentration and a negative control (PBS) well was also set. The cells were incubated at 25° C. for about 60 minutes and then developed and detected. The raw data of the test was the difference between the detection wavelength and the reference wavelength. A dose-response curve was fitted using statistical software, based on OD value and the logarithmic value of the concentration, from which the EC50 was obtained.

[13] = biological target: T3, cynomolgus monkey GPRC5D on HEK293T cells (cynomolgus monkey); test: cell-based binding assay on HEK293T-cynoGPRC5D
T3 construct: whole, on cells; also called HEK293T-cynoGPRC5D; Cynomolgus GPRC5D
Method: as §3

[14] = biological target: T4, recombinant CD3e antigen (Human CD3 epsilon Protein, His Tag, ACRO Cat: CDE-H5223) (human, UniProt P07766 23-126); test: BLI (Octet R8), recombinant CD3e antigen
T4 construct: Bought protein; also called CD3 antigen; not shown: His tag
T4 sequence (P07766 23-126 limits assumed): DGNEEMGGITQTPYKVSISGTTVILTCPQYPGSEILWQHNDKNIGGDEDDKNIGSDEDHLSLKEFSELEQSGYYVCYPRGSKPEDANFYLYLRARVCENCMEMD
From the text: (§4) The recombinant CD3e antigen (Human CD3 epsilon Protein, His Tag, ACRO Cat: CDE-H5223) and recombinant GPRC5D antigen (Human GPRC5D protein-Flag-His tag (51.8KD) ACRO Cat: GPD-H52D3) were immobilized on a chip and detected by Octet® R8 biomolecular interaction analysis system.

[15] = biological target: T1, recombinant GPRC5D antigen (Human …); test: BLI (Octet R8), recombinant GPRC5D antigen; remark: listed apart in the source
From the text: as §4

B1: humanized antibody 22Mono5UQY (antibody, human IgG1, V domains shown)
VH: QVQLQESGPGLVKPSETLSLTCTASGYPFTNYWMHWVRQPPGKGLEWIGEINPSNGRTNYNEKFKSRATLSLDKSKNQASLNLDSVSAADTAIYYCARGFAYWGKGSTVTVSS
VL: AIQLTQSPSSLSASVGDRVTITCSASSSVSFMHWYQQKPGKAPKRWIYDTTKLASGVPSRFSGSGSGTDYTFTISSLQPEDIATYYCQQWNSHPLTFGPGTKVDIK
notes: also called 22MonoSUQY
Kd [1]: 5.67 nM
koff [1]: 0.000489 s⁻¹
kon [1]: 86200 M⁻¹ s⁻¹

B3: humanized CD3xGPRC5D bispecific antibody 22A8 (Structure D) (bispecific antibody)
heavy 1: QVQLVQSGAEVKKPGSSVKVSCRASGYPFTNYWMHWVRQAPGQGLEWIGEINPSNGRTNYNEKFKSRATLTLDKLTSTAYMELSSLTSEDTALYYCARGFAYWGQGTLVTVSSASTKGPSVFPLAPSSKSTSGGTAALGCLVKDYFPEPVTVSWNSGALTSGVHTFPAVLQSSGLYSLSSVVTVPSSSLGTQTYICNVNHKPSNTKVDKKVEPKSCDKTHTCPPCPAPPVAGPSVFLFPPKPKDTLMISRTPEVTCVVVDVSQEDPEVKFNWYVDGVEVHNAKTKPREEQFNSTYRVVSVLTVLHQDWLNGKEYKCKVSNKGLPSSIEKTISKAKGQPREPQVYTLPPSRDELTKNQVSLSCAVKGFYPSDIAVEWESNGQPENNYKTTPPVLDSDGSFFLVSKLTVDKSRWQQGNVFSCSVMHEALHNRFTQKSLSLSP
light: EIVLTQSPGTLSLSPGERATLSCSASSSVSFMHWYQQKPGQAPRRWIYDTTKLASGIPDRFSGSGSGTDYTLTISRLEPEDFAVYYCQQWNSHPLTFGQGTTVEIKRTVAAPSVFIFPPSDEQLKSGTASVVCLLNNFYPREAKVQWKVDNALQSGNSQESVTEQDSKDSTYSLSSTLTLSKADYEKHKVYACEVTHQGLSSPVTKSFNRGEC
heavy 2: EVQLVESGGGLVQPGGSLRLSCAASGFTFSTYAMNWVRQAPGKGLEWVGRIRSKYNNYATYYADSVKGRFTISRDDSKNSLYLQMNSLRAEDTAVYYCVRHGNFGTSYVSWFAYWGQGTLVTVSSASTKGPSVFPLAPSSKSTSGGTAKLGCLVKDYFPEPVTVSWNSGALTSGVHTFPACLQSSGLYSLSSVVTVPSSSLGTQTYICNVNHKPSNTKVDKKVEPKSSDKTHTCPPCPAPELLAGPDVFLFPPKPKDTLMISRTPEVTCVVVDVSHEDPEVKFNWYVDGVEVHNAKTKPREEQYNSTYRVVSVLTVLHQDWLNGKEYKCKVSNKALPLPEEKTISKAKGQPREPQVYTLPPSRDELTKNQVSLWCLVKGFYPSDIAVEWESNGQPENNYKTTPPVLDSDGSFFLYSKLTVDKSRWQQGNVFSCSVMHEALHNHYTQKSLSLSP
chain: QVQLVQSGAEVKKPGSSVKVSCRASGYPFTNYWMHWVRQAPGQGLEWIGEINPSNGRTNYNEKFKSRATLTLDKLTSTAYMELSSLTSEDTALYYCARGFAYWGQGTLVTVSSASTKGPSVFPLAPSSKSTSGGTAALGCLVKDYFPEPVTVSWNSGALTSGVHTFPAVLQSSGLYSLSSVVTVPSSSLGTQTYICNVNHKPSNTKVDKKVEPKSCDGGGGSGGGGSQAVVTQEPSLTVSPGGTVTLTCRSSTGAVTTSNYANWVQQKPGQAPRGLIGGTNKRAPWTPARFSGSLLGGKAALTLSGAQAEDEADYYCALWYSNLWVFGGGTKLTVLRTVAAPSVDIFPPSDEQLKSGTASVVCLLNNFYPREAKVQWKVDNALQSGNSCESVTEQDSKDSTYSLSSTLTLSKADYEKHKVYACEVTHQGLSSPVTKSFNRGES
notes: First polypeptide: VH1(GPRC5D, humanized)-CH1a-Fc; Second and fifth polypeptides are identical: VL(GPRC5D, humanized)-CLa; Third polypeptide: VH2(CD3)-CH1b-Fc; Fourth polypeptide: VH3(GPRC5D, humanized)-CH1a-linker-VL2(CD3)-CLb; Fc mutations are knob-into-hole (T366W; Y407V, T366S, L368A)
EC50 (human GPRC5D on cells [12]): 3.86 nM
EC50 [13]: 10.1 nM
Kd [14]: 30 nM
koff [14]: 0.00381 s⁻¹
kon [14]: 127000 M⁻¹ s⁻¹
Kd [15]: 9.47 nM
koff [15]: 0.000596 s⁻¹
kon [15]: 62900 M⁻¹ s⁻¹

B4: humanized antibody 22Mono5JO4 (antibody, human IgG1, V domains shown)
VH: QVQLVQSGAEVKKPGSSVKVSCRASGYPFTNYWMHWVRQAPGQGLEWIGEINPSNGRTNYNEKFKSRATLTLDKLTSTAYMELSSLTSEDTALYYCARGFAYWGQGTLVTVSS
VL: EIVLTQSPGTLSLSPGERATLSCSASSSVSFMHWYQQKPGQAPRRWIYDTTKLASGIPDRFSGSGSGTDYTLTISRLEPEDFAVYYCQQWNSHPLTFGQGTTVEIK
Kd [1]: 0.787 nM
koff [1]: 0.000119 s⁻¹
kon [1]: 151000 M⁻¹ s⁻¹

B5: humanized antibody 22Mono4DN4 (antibody, human IgG1, V domains shown)
VH: ELVQSGAEVKKPGSSVKVSCKASGYPFTNYWMHWVRQAPGQGLEWIGEINPSNGRTNYNEKFKSRATLTLDKSTSTAYMELSSLRSEDTAVYYCARGFAYWGQGTLVTVSS
VL: B4 VL with G9A, I57V, D59A, R76S, T102K
Kd [1]: 16.9 nM
koff [1]: 0.00114 s⁻¹
kon [1]: 67300 M⁻¹ s⁻¹

More lines, now with the values ahead:

LogEC50 (human GPRC5D on cells [2]): -0.207 log(ug/ml)
LogEC50 (human GPRC5D on cells [3]): -0.309 log(ug/ml)
EC50 (human GPRC5D on cells [4]): 0.62 µg/mL
EC50 (human GPRC5D on cells [5]): 0.916 µg/mL
LogEC50 (human GPRC5D on cells [6]): -0.314 log(ug/ml)
EC50 (human GPRC5D on cells [7]): 1.58 µg/mL
EC50 (human GPRC5D on cells [8]): 0.485 µg/mL
LogEC50 (human GPRC5D on cells [9]): -0.0379 log(ug/ml)
LogEC50 (human GPRC5D on cells [10]): 0.198 log(ug/ml)
EC50 (human GPRC5D on cells [11]): 0.49 µg/mL
B2: ch-72C7 chimeric recombinant antibody (antibody, V domains shown)
VH: QVQLQQPGAELVKPGTSVKLSCKASGYPFTNYWMHWVRQRPGQGLEWIGEINPSNGRTNYNEKFKSLATLTLDKSSSTAYMHLNSLTSEDSAVYYCARGFAYWGQGTLVTVSA
VL: QIVLSQFPAIMSASPGEKVTMTCSASSSVSFMHWYQQKSGTSPKRWIYDTTKLASGVPARFTGSGSGTSYSLTISSMEAEDAATYYCQQWNSHPLTFGPGTKLELK
notes: also called ch-72C7 antibody; antibody ch-72C7

Kd [1]: 25.6 nM
koff [1]: 0.002 s⁻¹
kon [1]: 78000 M⁻¹ s⁻¹
B6: humanized antibody 22Mono3L7F (antibody, human IgG1, V domains shown)
VH: EVTLKESGPVLVKPTETLTLTCTASGYPFTNYWMHWVRQPPGKALEWIGEINPSNGRTNYNEKFKSRATLSLDKSKSQAVLTMTNMDPVDTATYYCARGFAYWGQGTLVTVSS
VL: B4 VL with G9A, D59A, R76S, T102K, V103L
notes: also called 22monoO3L7
